Results on 1 protein are retold here after patent US20240216536.

In data set [1] the target is T1, His-S5A substrate (E6AP Ubiquitin Ligase Kit-S5a Substrate, Boston Biochem #K-230), P55036.
T1 chain: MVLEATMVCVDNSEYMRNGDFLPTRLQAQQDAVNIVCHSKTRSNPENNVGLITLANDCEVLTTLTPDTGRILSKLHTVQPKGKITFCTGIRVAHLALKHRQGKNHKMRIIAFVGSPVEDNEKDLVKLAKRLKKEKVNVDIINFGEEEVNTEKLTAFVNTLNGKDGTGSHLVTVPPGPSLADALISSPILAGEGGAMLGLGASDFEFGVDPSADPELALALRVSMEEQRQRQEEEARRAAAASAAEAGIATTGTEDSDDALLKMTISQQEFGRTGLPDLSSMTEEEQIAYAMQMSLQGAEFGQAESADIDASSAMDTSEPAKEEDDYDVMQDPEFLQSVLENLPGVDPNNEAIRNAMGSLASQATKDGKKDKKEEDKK

B1: rat UBE3A protein (endogenous, from wild type rat cerebrospinal fluid and hippocampal dialysate) (protein)
chain: MATACKRSSGESQSEDIEASRMKRAAAKHLIERYYHQLTEGCGNEACTNEFCASCPTFLRMDNNAAAIKALELYKINAKLCDPHPSKKGASSAYLENSKGASNNSEIKMNKKEEFKEVDYLTEEKVYEIYEFCREREDYSPLIRVIGRIFSSAEALVQSFRKVKQHTKEELKSLQEKDEDKDEDEKEKAACSAAAMEEDSEASSSRMGDSSQGDNNVQKLGPDDVTVDIDAIRRVYSSLLSDEKIETAFLNALVYLSPNVECDLTYHNVYTRDPNYLNLFIIVMENRNLHSPEYLEMALPLFCKAMSKLPLAAQGKLIRLWSKYSADQIRRMMETFQQLITYKVISNEFNSRNLVNDDDAIVAASKCLKMVYYANVVGGDVDTNHNEEDDEEPIPESSELTLQELLGEERRNKKGPRVDPLETEIGVKTLDCRKPLISFEEFINEPLNDVLEMDKDYTFFKVETENKFSFMTCPFILNAVTKNLGLYYDNRIRMYSERRITVLYSLVQGQQLNPYLRLKVRRDHIIDDALVRLEMIAMENPADLKKQLYVEFEGEQGVDEGGVSKEFFQLVVEEIFNPDIGMFTYDEATRLFWFNPSSFETEGQFTLIGIVLGLAIYNNCILDVHFPMVVYRKLMGKKGTFCDLGDSHPILYQSLKDLLEYEGNVEDDMMITFQISQTDLFGNPMMYDLKENGDKIPITNENRKEFVSLYSDYILNKSVEKQFKAFRRGFHMVTNESPLKYLFRPEEIELLICGSRNLDFQALEETTEYDGGYTRESVVIREFWEIVHSFTDEQKRLFLQFTTGTDRAPVGGLGKLKMIIAKNGPDTERLPTSHTCFNVLLLPEYSSKEKLKERLLKAITYAKGFGML
In the case of B1, the “ubiquitination assay western blot (self-ubiquitination of UBE3A)” value was “the UBE3A protein present in both the CSF and hippocampal dialysate were active in ubiquitinating both the S5A substrate and UBE3A”. Moreover, in data set [1], the “ubiquitination assay western blot (S5A band shift over time)” value is “the UBE3A protein present in both the CSF and hippocampal dialysate were active in ubiquitinating both the S5A substrate and UBE3A”; the “ubiquitination assay western blot after immuno-depletion of UBE3A (S5A band intensity)” value is “With UBE3A protein immuno-precipitated, UBE3A protein was not detected and the S5A band intensity remained unchanged over time”.
